In one assay the target is T1, HuB7H3-Fc (human, UniProt Q5ZPR3 29-245).
T1 chain: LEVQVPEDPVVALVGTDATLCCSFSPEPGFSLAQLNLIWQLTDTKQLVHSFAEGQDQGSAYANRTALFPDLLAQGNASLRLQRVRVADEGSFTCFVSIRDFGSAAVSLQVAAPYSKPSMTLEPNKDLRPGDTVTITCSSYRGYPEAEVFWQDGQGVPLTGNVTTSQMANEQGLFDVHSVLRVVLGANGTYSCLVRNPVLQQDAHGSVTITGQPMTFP
In words: sandwich ELISA; dual binding, HuB7H3-Fc coated, NKP30-his detected. (In an ELISA, binding on a coated surface is turned into a signal by an enzyme label.)

Another assay deals with T2, HuB7H3-his (human, UniProt Q5ZPR3 29-245).
T2 chain: T1 chain
Nature of the assay: ELISA.

A further assay deals with T3, human-NKP30-His (human, UniProt O14931 19-138).
T3 chain: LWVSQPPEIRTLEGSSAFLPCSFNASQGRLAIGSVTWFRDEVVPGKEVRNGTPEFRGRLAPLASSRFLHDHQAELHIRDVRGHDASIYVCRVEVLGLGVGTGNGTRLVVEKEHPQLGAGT
Nature of the assay: ELISA.

B1: constructed antibody D28 (bispecific antibody)
heavy: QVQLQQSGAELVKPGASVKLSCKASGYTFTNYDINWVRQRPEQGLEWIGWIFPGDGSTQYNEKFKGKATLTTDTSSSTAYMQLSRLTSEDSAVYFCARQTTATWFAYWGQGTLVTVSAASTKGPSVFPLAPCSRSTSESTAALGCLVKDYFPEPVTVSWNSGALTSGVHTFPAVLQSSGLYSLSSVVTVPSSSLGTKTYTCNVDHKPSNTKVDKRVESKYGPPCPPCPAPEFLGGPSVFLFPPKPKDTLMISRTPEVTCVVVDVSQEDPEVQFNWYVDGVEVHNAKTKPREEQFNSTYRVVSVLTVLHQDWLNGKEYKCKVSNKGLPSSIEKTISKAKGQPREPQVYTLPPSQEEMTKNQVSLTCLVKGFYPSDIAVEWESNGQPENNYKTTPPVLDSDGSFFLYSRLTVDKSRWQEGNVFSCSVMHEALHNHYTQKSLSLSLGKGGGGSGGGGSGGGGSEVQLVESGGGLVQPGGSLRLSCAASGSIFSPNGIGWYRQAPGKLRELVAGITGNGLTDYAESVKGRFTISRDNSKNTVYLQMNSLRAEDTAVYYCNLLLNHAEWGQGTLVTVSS
light: DIVMTQSPATLSVTPGDRVSLSCRASQSISDYLHWYQQKSHESPRLLIKYASQSISGIPSRFSGSGSGSDFTLSINSVEPEDVGVYYCQNGHSFPLTFGAGTKLELKRTVAAPSVFIFPPSDEQLKSGTASVVCLLNNFYPREAKVQWKVDNALQSGNSQESVTEQDSKDSTYSLSSTLTLSKADYEKHKVYACEVTHQGLSSPVTKSFNRGEC
With B1, the EC50 (commonly the midpoint of the concentration-response curve) with HuB7H3-Fc came out at 0.445 mg/L.

B2: constructed antibody A25 (bispecific antibody)
heavy: not shown
light: B1 light
As to B2, the EC50 with HuB7H3-his worked out at 0.0526 mg/L; with human-NKP30-His, 0.00817 mg/L; with HuB7H3-Fc it was 0.19 mg/L.

B3: NKP30 monoclonal antibody (antibody, V domains shown)
VH: EVQLVESGGGLVQPGGSLRLSCAASGITFSRSVMGWFRQAPGKLRELVAGITSDDNTDYADSVKGRFTISRDNSKNTLYLQMNSLRAEDTAVYYCNILPDSRLGWGQGTLVTVSS
Molecule B3 yielded an EC50 with human-NKP30-His of 0.00258 mg/L.

For the origin of these results see patent publication US20250092140A1 (published 2025).
